Test results published in US20250122303A1, “TREATMENT AND PREVENTION OF CANCER USING HER3 ANTIGEN-BINDING MOLECULES” (Hummingbird Bioscience Pte. Ltd., priority 2021, published 2025).

Assays:
[1] = Toxicity in BALB/c mice (haematology, clinical chemistry, observations); type: in vivo, mouse; conditions: single IP dose 1000 μg
Method: Hemotoxicity was investigated in an experiment in which 6-8 week old female BALB/c mice (20-25 g) were injected intraperitoneally with a single dose of 1000 μg anti-HER3 10D1 antibody or an equal volume of PBS. Blood samples were obtained at 96 hours post injection and analysed for numbers of different types of white blood cells by flow cytometry and electrolyte indices for NA^+, K^+, and Cl^−.
Mice were also analysed for correlates hepatotoxicity, nephrotoxicity and pancreatic toxicity at 96 hours post injection. […] Left bars represent vehicle, right bars represent 10D1 treatment, end points of the Charles River reference range indicated with dotted lines.
3 mice were injected with each treatment, 4 mice were injected with PBS control. Blood samples were obtained at 96 hours post injection and analysed for RBC indices (total RBC count, haematocrit, haemoglobin, platelet count, mean corpuscular volume, mean corpuscular haemoglobin, mean corpuscular haemoglobin concentration) and WBC indices (total WBC count, lymphocyte count, neutrophil count, monocyte count). Analysis was performed using a HM5 Hematology Analyser.
A further study was performed in the BALB/c mice to assess the toxicological effects of repeat doses of 500 μg (˜25 mg/kg) 10D1 F.FcA or 10D1F.FcB. Antibody was administered once a week for four weeks. Blood was obtained 28 days after the first administration.

FaDu cells [2] = experiment: CCK-8 proliferation assay, FaDu; type: cell-based, human; conditions: 5 days
Method: Briefly, N87 and FaDu cells were treated with serially diluted concentrations of anti-HER3 antibody 10D1, starting from 100 μg/ml with a 9-point half log dilution. Cell proliferation was measuring using the CCK-8 proliferation assay (Dojindo, Japan) after a period of 5 days, in accordance with the manufacturer's instructions. Briefly 1× CCK-8 solution was added to each well followed by incubation for 2 h at 37° C. The OD was then measured at 450 nm.

[3] = tested on: SNU16 cell-line derived mouse gastric carcinoma model; experiment: SNU16 cell-line derived xenograft model; type: in vivo; conditions: SNU16, IP biweekly 500 μg, 9 doses
Method: (§1) Tumor volumes were measured 3 times a week using a digital caliper and calculated using the formula [L ×W2/2]. Study End point was considered to have been reaches once the tumors of the control arm measured >1.5 cm in length.
The model was established by subcutaneous injection of 1×10^6 SNU16 cells into the right flank (n=6 mice per treatment group).
10D1 was administered IP, biweekly at 500 μg per dose (for a total of 9 doses); a control treatment group received an equal volume of PBS.

[4] = target: heterodimerisation of HER3 and HER2 (Homo sapiens, UniProt P21860); experiment: ELISA inhibition of HER2-HER3 interaction; type: biochemical; conditions: Example 4.1: His-tagged HER2 coated, biotinylated HER3
Method: The anti-HER3 antibodies were analysed for their ability to inhibit heterodimerisation of HER3 and HER2. Briefly, 96-well plates (Nunc, Denmark) were coated with 0.1 μg/ml His-tagged HER2 protein in PBS for 16 h at 4° C. After blocking for 1 h with 1% BSA in PBS at room temperature, recombinant biotinylated human HER3 protein was added in the presence of different concentrations of anti-HER3 antibody clone 10D1, and pates were incubated for 1 h at room temperature. Plates were subsequently washed three times, and then incubated with HRP-conjugated secondary antibody for 1 h at room temperature. After washing, plates were developed with colorimetric detection substrate 3,3′,5,5′-tetramethylbenzidine (Turbo-TMB; Pierce, USA) for 10 min. The reaction was stopped with 2M H2SO4, and OD was measured at 450 nm.
Plate-based ELISA dimerisation assays were carried out according to standard protocols. Plates were coated with 1 μg/ml HER2-Fc protein. […] Plates were then washed and incubated for 1 hour with secondary anti-HIS HRP antibody. Plates were washed, treated with TMB for 10 mins and the reaction was stopped using 2M H2SO4 stop solution. The absorbance was read at 450 nm.

FaDu cells [5] = experiment: Phosphoprotein Antibody Array; type: cell-based, human; conditions: 50 μg/ml 4 hrs, NRG 100 ng/ml
Method: FaDu cells were seeded in wells of a 6 well plate with 10% serum at 37° C., 5% CO2. After 16 hrs, cells were starved by culture overnight in 1% FBS cell culture medium. On the following day cells were treated with 50 μg/ml anti-HER3 antibody 10D1 for 4 hrs, followed by 15 min stimulation with NRG (100 ng/ml). Proteins were then extracted, quantified using standard Bradford protein assay, and incubated overnight with pre-blocked Phosphoprotein Antibody Array membrane (Ray Biotech) at 4° C. The membrane was then washed with washing buffer and incubated with detection antibody cocktail for 2 hrs at room temperature, followed by washing and incubation with HRP-Conjugated anti-IgG. After 2 hrs the membrane was washed and probed using the kit detection buffer. Images were captured with Syngene Gbox imaging system, the intensity of each dot/phosphoprotein was measured and percent inhibition was calculated by comparison with intensity measured for cells treated in the same way in the absence of the antibody.

[6] = tested on: FaDu cell-line derived mouse model of head and neck squamous cell carcinoma; experiment: FaDu cell-line derived xenograft model; type: in vivo
Method: as §1
The model was established by subcutaneous injection of 1×10^6 FaDu cells into the right flanks of female NPG mice (NOD scid gamma phenotype; n=6 mice per treatment group).
10D1 was administered IP, weekly at 500 μg per dose (for a total of 4 doses). Control treatment groups received an equal volume of PBS, or the same dose of an isotype control antibody.
The model was established by subcutaneous injection of 1×10^6 FaDu cells into the right flanks of female NCr nude mice (n=6 mice per treatment group).
10D1 was administered IP, biweekly at 500 μg per dose (for a total of 8 doses); a control treatment group received an equal volume of PBS.
Tumour cells were inserted with matrigel subcutaneously into the right flanks of female NCr nude mice.
Murine tumour efficacy studies were performed using cell-line derived xenograft (CDX) models in mice. Female NCr nude mice (5-8 weeks old, 21-29 g) were subcutaneously implanted with N87, A549, FaDu, OvCAR8 cells. Treatment was initiated when tumours reached approximately 100 to 200 mm^3. […] Tumours were measured twice per week using a calliper and tumour volume (mm^3) was calculated. […]

[7] = Pharmacokinetic analysis in NCr nude mice; conditions: 500 μg
Method: Female NCr nude mice approximately 6-8 weeks old were housed under specific pathogen-free conditions and treated in compliance with the Institutional Animal Care and Use Committee (IACUC) guidelines. 500 μg anti-HER3 antibody was administered and blood was obtained from 3 mice by cardiac puncture at baseline (−2 hr), 0.5 hr, 6 hr, 24 hr, 96 hr, 168 hr and 336 hr after administration. Antibody in the serum was quantified by ELISA.
The parameters for the pharmacokinetic analysis in rats and mice were derived from a non-compartmental model: maximum concentration (Cmax), AUC (0-336 hr), AUC (0-infinity), Half-life (t1/2), Clearance (CL), Volume of distribution at steady state (Vd).
Antibody in the serum was quantified by ELISA.
A single dose PK study was performed in NCr Nude mice (25 mg/kg HMBD-001, IV). A single dose PK study including a range of dose levels (2, 5, 10 and 25 mg/kg HMBD-001, IP) was conducted in A549 tumour bearing mice.

B1: 10D1: anti-HER3 antibody clone, VH SEQ ID NO:24, VL SEQ ID NO:74; [1] of Example 2.2 (antibody, V domains shown)
VH: DVQLQESGPDLVKPSQSLSLTCTVTGYSITSGYSWHWIRQFPGNKLEWMGSIHYSGGTNYNPSLKSRISITRDTSKNQFFLQLNSVTTEDTATYFCARMTTAPRYPFDYWGQGTTLTVSS
VL: DIVMTQSQKFMSTSVGDRVSVTCKASQIVGSNVAWYQQKPGQSPKPLIYSASYRYSGVPDRFTASGSGTDFTLTITNVQSEDLAEYFCQQYSSHPLTFGAGTKLELK
[1]
  clinical signs, gross necroscopy or weight: No differences
[1]; 96 hours
  kidney, liver or pancreatic indices: no effect on the kidney, liver or pancreatic indices
  numbers of different blood cell types and electrolyte indices: within the Charles River reference range
FaDu cells [2]
  cell proliferation: dose-dependent inhibition of cell proliferation
[3]
  inhibition of tumor growth: ~68%
[4]
  inhibition of interaction between HER2 and HER3: inhibit interaction between HER2 and HER3 in a dose-dependent fashion
FaDu cells [5]
  intracellular signalling pathways affected: inhibit P13K/AKT/mTOR and MAPK signalling
[6]; NCr nude mice, IP biweekly 500 μg, 8 doses
  inhibition of tumor growth: ~86%
[6]; NPG mice, IP weekly 500 μg, 4 doses
  inhibition of tumor growth: ~85%
[7]
  half-life: 16.3 days
